From US20130078234A1 (Daiichi Sankyo, published 2013) come the findings set out here.

The target of test [1] is T1, extracellular domain polypeptide of a recombinant B7-H3 variant 2 antigen (R&D Systems, Inc., #2318-B3-050/CF) (human, UniProt Q5ZPR3 29-466).
T1 construct: Bought recombinant protein; also called recombinant B7-H3 antigen; B7-H3 antigen
T1 sequence: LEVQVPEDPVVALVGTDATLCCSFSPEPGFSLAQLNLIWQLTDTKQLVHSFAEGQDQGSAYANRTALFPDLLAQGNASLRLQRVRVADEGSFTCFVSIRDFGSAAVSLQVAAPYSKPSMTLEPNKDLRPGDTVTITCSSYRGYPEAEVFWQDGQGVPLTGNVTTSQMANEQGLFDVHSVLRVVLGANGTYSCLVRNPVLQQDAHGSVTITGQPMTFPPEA
Nature of the test: SPR (Biacore), antibody captured on anti-human IgG, B7-H3 variant 2 extracellular domain as analyte. As to the method:
(§1) The binding property of the humanized M30 antibody to human B7-H3 which is an antigen was measured by a surface plasmon resonance (SPR) device (Biacore, Inc.). According to a common procedure, an anti-human IgG antibody was immobilized on a sensor chip, and then, each of the purified samples of the humanized M30 antibodies obtained in the above 10)-4 was bound thereto. Thereafter, an extracellular domain polypeptide of the B7-H3 variant 2 antigen (manufactured by R&D Systems, Inc., #2318-B3-050/CF) was added thereto at different concentrations, and the amount of the antigen bound to the antibody in a running buffer (phosphate buffer, 0.05% SP20) was measured over time. The measured amount was analyzed with a dedicated software (BIAevaluation) and a dissociation constant (Kd [M]) was calculated. The measurement was performed using the cM30 antibody as a positive control for each measurement operation.

Test [2] deals with T1, extracellular domain polypeptide of a …. Nature of the test: competition ELISA on plate-coated B7-H3 variant 2 extracellular domain polypeptide; competitor biotinylated M30 (bM30, 5 ug/ml), detected with streptavidin-HRP, OD 450 nm. As to the method:
Each of the extracellular domain polypeptide of the B7-H3 variant 1 (manufactured by R&D Systems, Inc., #1949-B3-050/CF) and the extracellular domain polypeptide of the B7-H3 variant (manufactured by R&D Systems, Inc., #2318-B3-050/CF) was diluted to 0.5 μg/ml with a coating buffer and the resulting solution was dispensed at 100 μL/well in an immunoplate (manufactured by Nunc, Inc., #442404). Then, the plate was left to stand overnight at 4° C., whereby the protein was adsorbed to the plate. On the next day, an assay diluent was dispensed at 200 μL/well, and the plate was left to stand at room temperature for 4 hours.

For test [3] the target is unchanged. Nature of the test: SPR (Biacore), antibody captured on anti-human IgG, B7-H3 variant 2 extracellular domain as analyte; positive control. As to the method:
as §1
For orientation: In SPR one partner is held on a chip, and binding of the other changes the refractive index at the surface.

Test [4] shares this target. Nature of the test: SPR, antibody captured on immobilized anti-human IgG, B7-H3 variant 2 extracellular domain as analyte; cM30 chimeric antibody, captured on anti-human IgG; experiment 8)-1. On the procedure: The affinity between the M30 antibody or the cM30 antibody and the B7-H3 antigen was measured by a surface plasmon resonance (SPR) device (GE Healthcare Corporation). According to a common procedure, an anti-mouse IgG or an anti-human IgG antibody was immobilized on a sensor chip, and then, the M30 antibody sample or the cM30 antibody was bound thereto. Thereafter, an extracellular domain polypeptide of a recombinant B7-H3 variant 2 antigen (manufactured by R&D Systems, Inc., #2318-B3-050/CF) was added thereto at different concentrations, and the amount of the antigen bound to the antibody in a running buffer (phosphate buffer, 0.05% SP20) was measured over time. The measured amount was analyzed with a dedicated software (BIAevaluation Version 4.1, GE Healthcare Corporation) and a dissociation constant was calculated.

B1: humanized M30 antibody M30-H1-L1 (antibody, human IgG1, kappa, V domains shown)
VH: QVQLVQSGAEVKKPGSSVKVSCKASGYTFTNYVMHWVRQAPGQGLEWMGYINPYNDDVKYNEKFKGRVTITADESTSTAYMELSSLRSEDTAVYYCARWGYYGSPLYYFDYWGQGTLVTVSS
VL: EIVLTQSPATLSLSPGERATLSCRASSRLIYMHWYQQKPGQAPRLLIYATSNLASGIPARFSGSGSGTDFTLTISRLEPEDFAVYYCQQWNSNPPTFGQGTKVEIKR
notes: Human IgG1/kappa
B1: the Kd – broadly, the equilibrium constant for the complex coming apart – in test [1] is 0.087 µM.

B2: humanized M30 antibody M30-H4-L3 (antibody, human IgG1, kappa, V domains shown)
VH: EVQLVQSGAEVKKPGSSVKVSCKASGYTFTNYVMHWVKQAPGQGLEWIGYINPYNDDVKYNEKFKGKATQTSDKSTSTAYMELSSLRSEDTAVYYCARWGYYGSPLYYFDYWGQGTLVTVSS
VL: QIVLSQSPATLSLSPGERATLTCRASSRLIYMHWYQQKPGSAPKLWIYATSNLASGIPARFSGSGSGTSYTLTISRLEPEDFAVYYCQQWNSNPPTFGQGTKVEIKR
notes: Human IgG1/kappa
As to B2, the Kd in test [1] was determined as 0.16 µM.

B3: humanized M30 antibody M30-H1-L3 (antibody, human IgG1, kappa, V domains shown)
VH: QVQLVQSGAEVKKPGSSVKVSCKASGYTFTNYVMHWVRQAPGQGLEWMGYINPYNDDVKYNEKFKGRVTITADESTSTAYMELSSLRSEDTAVYYCARWGYYGSPLYYFDYWGQGTLVTVSS
VL: QIVLSQSPATLSLSPGERATLTCRASSRLIYMHWYQQKPGSAPKLWIYATSNLASGIPARFSGSGSGTSYTLTISRLEPEDFAVYYCQQWNSNPPTFGQGTKVEIKR
notes: Human IgG1/kappa
As for B3, in test [1], the Kd turned out to be 0.1 µM.

B4: humanized M30 antibody M30-H1-L4 (antibody, human IgG1, kappa, V domains shown)
VH: QVQLVQSGAEVKKPGSSVKVSCKASGYTFTNYVMHWVRQAPGQGLEWMGYINPYNDDVKYNEKFKGRVTITADESTSTAYMELSSLRSEDTAVYYCARWGYYGSPLYYFDYWGQGTLVTVSS
VL: EIVLTQSPATLSLSPGERATLSCRASSRLIYMHWYQQKPGQAPRPLIYATSNLASGIPARFSGSGSGTDFTLTISSLEPEDFAVYYCQQWNSNPPTFGQGTKVEIKR
notes: Human IgG1/kappa; also called M30-H1-L4 antibody
For B4, in test [1], the equilibrium dissociation constant (Kd) was 0.016 µM. Besides, the “IC50 (read off the curve)” value in test [2] is approximately 0.5 mg/L.

B5: humanized M30 antibody M30-H1-L7 (antibody, human IgG1, kappa, V domains shown)
VH: QVQLVQSGAEVKKPGSSVKVSCKASGYTFTNYVMHWVRQAPGQGLEWMGYINPYNDDVKYNEKFKGRVTITADESTSTAYMELSSLRSEDTAVYYCARWGYYGSPLYYFDYWGQGTLVTVSS
VL: EIVLTQSPATLSLSPGERATLSCRASSRLIYMHWYQQKPGQAPRPLIYATSNLASGIPARFSGSGSGTDYTLTISRLEPEDFAVYYCQQWNSNPPTFGQGTKVEIKR
notes: Human IgG1/kappa
For B5, the dissociation constant Kd in test [1] was determined as 0.0027 µM.

B6: humanized M30 antibody M30-H1-L5 (antibody, human IgG1, kappa, V domains shown)
VH: QVQLVQSGAEVKKPGSSVKVSCKASGYTFTNYVMHWVRQAPGQGLEWMGYINPYNDDVKYNEKFKGRVTITADESTSTAYMELSSLRSEDTAVYYCARWGYYGSPLYYFDYWGQGTLVTVSS
VL: QIVLSQSPATLSLSPGERATLTCRASSRLIYMHWYQQKPGSAPKPWIYATSNLASGIPARFSGSGSGTSYTLTISRLEPEDFAVYYCQQWNSNPPTFGQGTKVEIKR
notes: Human IgG1/kappa
On to B6, for which the Kd in test [1] came out at 0.0019 µM.

B7: humanized M30 antibody M30-H4-L1 (antibody, human IgG1, kappa, V domains shown)
VH: EVQLVQSGAEVKKPGSSVKVSCKASGYTFTNYVMHWVKQAPGQGLEWIGYINPYNDDVKYNEKFKGKATQTSDKSTSTAYMELSSLRSEDTAVYYCARWGYYGSPLYYFDYWGQGTLVTVSS
VL: EIVLTQSPATLSLSPGERATLSCRASSRLIYMHWYQQKPGQAPRLLIYATSNLASGIPARFSGSGSGTDFTLTISRLEPEDFAVYYCQQWNSNPPTFGQGTKVEIKR
notes: Human IgG1/kappa
Consider B7, for which the Kd in test [1] is 0.13 µM.

B8: humanized M30 antibody M30-H4-L4 (antibody, human IgG1, kappa, V domains shown)
VH: EVQLVQSGAEVKKPGSSVKVSCKASGYTFTNYVMHWVKQAPGQGLEWIGYINPYNDDVKYNEKFKGKATQTSDKSTSTAYMELSSLRSEDTAVYYCARWGYYGSPLYYFDYWGQGTLVTVSS
VL: EIVLTQSPATLSLSPGERATLSCRASSRLIYMHWYQQKPGQAPRPLIYATSNLASGIPARFSGSGSGTDFTLTISSLEPEDFAVYYCQQWNSNPPTFGQGTKVEIKR
notes: Human IgG1/kappa
Consider B8, for which the dissociation constant Kd in test [1] was found to be 0.012 µM.

B9: humanized M30 antibody M30-H1-L6 (antibody, human IgG1, kappa, V domains shown)
VH: QVQLVQSGAEVKKPGSSVKVSCKASGYTFTNYVMHWVRQAPGQGLEWMGYINPYNDDVKYNEKFKGRVTITADESTSTAYMELSSLRSEDTAVYYCARWGYYGSPLYYFDYWGQGTLVTVSS
VL: EIVLTQSPATLSLSPGERATLSCRASSRLIYMHWYQQKPGQAPRPLIYATSNLASGIPARFSGSGSGTDFTLTISRLEPEDFAVYYCQQWNSNPPTFGQGTKVEIKR
notes: Human IgG1/kappa
Take B9: the Kd in test [1] was found to be 0.0034 µM.

B10: humanized M30 antibody M30-H1-L2 (antibody, human IgG1, kappa, V domains shown)
VH: QVQLVQSGAEVKKPGSSVKVSCKASGYTFTNYVMHWVRQAPGQGLEWMGYINPYNDDVKYNEKFKGRVTITADESTSTAYMELSSLRSEDTAVYYCARWGYYGSPLYYFDYWGQGTLVTVSS
VL: EIVLTQSPATLSLSPGERATLSCRASSRLIYMHWYQQKPGQAPRLWIYATSNLASGIPARFSGSGSGTDYTLTISRLEPEDFAVYYCQQWNSNPPTFGQGTKVEIKR
notes: Human IgG1/kappa
For the molecule B10, in test [1], the Kd came out at 0.1 µM.

B11: humanized M30 antibody M30-H4-L2 (antibody, human IgG1, kappa, V domains shown)
VH: EVQLVQSGAEVKKPGSSVKVSCKASGYTFTNYVMHWVKQAPGQGLEWIGYINPYNDDVKYNEKFKGKATQTSDKSTSTAYMELSSLRSEDTAVYYCARWGYYGSPLYYFDYWGQGTLVTVSS
VL: EIVLTQSPATLSLSPGERATLSCRASSRLIYMHWYQQKPGQAPRLWIYATSNLASGIPARFSGSGSGTDYTLTISRLEPEDFAVYYCQQWNSNPPTFGQGTKVEIKR
notes: Human IgG1/kappa
For the molecule B11, the Kd in test [1] stood at 0.14 µM.

B12: chimeric antibody M30 (antibody, human IgG1, kappa)
heavy: not shown
light: QIVLSQSPTILSASPGEKVTMTCRASSRLIYMHWYQQKPGSSPKPWIYATSNLASGVPARFSGSGSGTSYSLTISRVEAEDAATYYCQQWNSNPPTFGTGTKLELKRTVAAPSVFIFPPSDEQLKSGTASVVCLLNNFYPREAKVQWKVDNALQSGNSQESVTEQDSKDSTYSLSSTLTLSKADYEKHKVYACEVTHQGLSSPVTKSFNRGEC
notes: Mouse M30 variable regions on human IgG1 / human kappa constant regions; also called cM30; cM30 antibody
With B12, the Kd came out at 0.00073 µM in test [3] and 0.00343 µM in test [4]. Besides, the “IC50 (read off the curve)” value in test [2] was approximately 0.4 mg/L.
